# In article doi:10.1101/2022.11.09.515798:
# Columns and labels:
# [1] = target: Hyphochytrium catenoides kalium channelrhodopsin 1 (HcKCR1) (Hyphochytrium catenoides); assay: cryo-EM structure
# [2] = target: Hyphochytrium catenoides kalium channelrhodopsin 2 (HcKCR2) (Hyphochytrium catenoides); assay: cryo-EM structure
stoichiometry N [1],stoichiometry N [2],Substance
3,–,Hyphochytrium catenoides kalium channelrhodopsin 1 (HcKCR1) (natural protein)
–,3,Hyphochytrium catenoides kalium channelrhodopsin 2 (HcKCR2) (natural protein)
